In the experiment the target is MERS-CoV RBD Twin-Strep His (wild type, G372-L588) (MERS-CoV). Nature of the experiment: serum pull-down with RBD-TwinStrep on streptavidin magnetic beads.

Data on one molecule can be found in EP4248993A1 (Charité - Universitätsmedizin Berlin, dated 2023).

B1: circulating mouse DPP4 (from serum) (receptor)
chain: SRRTYSLADYLKSTFRVKSYSLWWVSDFEYLYKQENNILLLNAEHGNSSIFLENSTFESFGYHSVSPDRLFVLLEYNYVKQWRHSYTASYNIYDVNKRQLITEEKIPNNTQWITWSPEGHKLAYVWKNDIYVKVEPHLPSHRITSTGEENVIYNGITDWVYEEEVFGAYSALWWSPNNTFLAYAQFNDTGVPLIEYSFYSDESLQYPKTVWIPYPKAGAVNPTVKFFIVNIDSLSSSSSAAPIQIPAPASVARGDHYLCDVVWATEERISLQWLRRIQNYSVMAICDYDKINLTWNCPSEQQHVEMSTTGWVGRFRPAEPHFTSDGSSFYKIISDKDGYKHICHFPKDKKDCTFITKGAWEVISIEALTSDYLYYISNQYKEMPGGRNLYKIQLTDHTNVKCLSCDLNPERCQYYAVSFSKEAKYYQLGCWGPGLPLYTLHRSTDHKELRVLEDNSALDRMLQDVQMPSKKLDFIVLNETRFWYQMILPPHFDKSKKYPLLLDVYAGPCSQKADASFRLNWATYLASTENIIVASFDGRGSGYQGDKIMHAINRRLGTLEVEDQIEAARQFVKMGFVDSKRVAIWGWSYGGYVTSMVLGSGSGVFKCGIAVAPVSRWEYYDSVYTERYMGLPIPEDNLDHYRNSTVMSRAEHFKQVEYLLIHGTADDNVHFQQSAQISKALVDAGVDFQAMWYTDEDHGIASSTAHQHIYSHMSHFLQQCFSLH
Take B1: the binding result is “no binding”.
